Test results reported in article PMC6513101, “Experimentally guided computational antibody affinity maturation with de novo docking, modelling and rational design” (PLoS Computational Biology, 2019).
Changes are numbered by the printed parent chain. In names and notes the source's numbering stands.

T1: murine CCL20 (mouse, UniProt O89093 28-97)
T1 chain: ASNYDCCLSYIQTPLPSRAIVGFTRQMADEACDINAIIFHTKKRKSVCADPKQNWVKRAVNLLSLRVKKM

B1: AB1-C1 (H:S28R) (antibody, V domains shown)
VH: QVQLQQSGAELAKPGSSVKISCKAYGRSFTTNSIHWIKQTTGQALEWTGYIAPGSGGARYNEKFKGKATLTVDKSSGTAYMQLSSLTPVDTAVYYCALNIGTNPFTYWGQGTLVTVSS
VL: DIVMTQGALPNPVPSGESVSITCRSSKSLLYSDGKTYLNWYLQRPGQSPQLLIYWMSTRASGVSDRFSGSGSGTDFTLKISGVEAEDVGVYYCQQGLEFPRTFGSGTKLEIK
B2: AB1-C16 (L:G35Y) (antibody, V domains shown)
VH: B1 VH with R27S
VL: B1 VL with G34Y
notes: IMGT numbering; IgG1, as m1; also called clone 16; VL clone 16; source: HEK293FT, transiently transfected, purified (Protein A)
B3: AB1-C1-16 (H:S28R, L:G35Y) (antibody, V domains shown)
VH: B1 VH
VL: B1 VL with G34Y
notes: IMGT numbering; IgG1, as m1; also called clone 1–16; combination clone; source: HEK293FT, transiently transfected, purified (Protein A)
B4: AB1 Fab fragment (Fab, V domains shown)
VH: B1 VH with R27S
VL: B1 VL
notes: Fab of m1; also called parental AB1 (Fab); source: papain cleavage of the purified antibody; purified by anion and cation exchange chromatography
B5: AB1-C1-16 Fab fragment (H:S28R, L:G35Y) (Fab, V domains shown)
VH: B1 VH
VL: B1 VL with G34Y
notes: IMGT numbering; Fab of m48; also called combination clone AB1-C1-16; source: papain cleavage of the purified antibody; purified by anion and cation exchange chromatography
B6: AB1-C1 Fab fragment (H:S28R) (Fab, V domains shown)
VH: B1 VH
VL: B1 VL
notes: IMGT numbering; Fab of m28; also called Clone AB1-C1; source: papain cleavage of the purified antibody; purified by anion and cation exchange chromatography
B7: AB1-C16 Fab fragment (L:G35Y) (Fab, V domains shown)
VH: B1 VH with R27S
VL: B1 VL with G34Y
notes: IMGT numbering; Fab of m43; source: papain cleavage of the purified antibody; purified by anion and cation exchange chromatography
B8: AB1 affinity maturation variant 6 (H:G64T) (antibody, V domains shown)
VH: B1 VH with R27S, G57T
VL: B1 VL
notes: IMGT numbering; IgG1, as m1; source: HEK293FT, transiently transfected, purified (Protein A)
B9: AB1 affinity maturation variant 7 (H:A65Y) (antibody, V domains shown)
VH: B1 VH with R27S, A58Y
VL: B1 VL
notes: as for B8
B10: AB1 affinity maturation variant 8 (H:I108R) (antibody, V domains shown)
VH: B1 VH with R27S, I100R
VL: B1 VL
notes: as for B8
B11: AB1 affinity maturation variant 9 (H:T110W) (antibody, V domains shown)
VH: B1 VH with R27S, T102W
VL: B1 VL
notes: as for B8
B12: AB1 affinity maturation variant 10 (H:T110F) (antibody, V domains shown)
VH: B1 VH with R27S, T102F
VL: B1 VL
notes: as for B8
B13: AB1 affinity maturation variant 11 (H:N113R) (antibody, V domains shown)
VH: B1 VH with R27S, N103R
VL: B1 VL
notes: as for B8
B14: AB1 affinity maturation variant 12 (H:F115H) (antibody, V domains shown)
VH: B1 VH with R27S, F105H
VL: B1 VL
notes: as for B8
B15: AB1 affinity maturation variant 13 (H:T116R) (antibody, V domains shown)
VH: B1 VH with R27S, T106R
VL: B1 VL
notes: as for B8
B16: AB1 affinity maturation variant 14 (L:S32D) (antibody, V domains shown)
VH: B1 VH with R27S
VL: B1 VL with S32D
notes: as for B8
B17: AB1 alanine variant 1 (H:S29A) (antibody, V domains shown)
VH: B1 VH with R27S, S28A
VL: B1 VL
notes: as for B8
B18: AB1 affinity maturation variant 15 (L:D34Q) (antibody, V domains shown)
VH: B1 VH with R27S
VL: B1 VL with D33Q
notes: as for B8
B19: AB1 affinity maturation variant 17 (L:K36R) (antibody, V domains shown)
VH: B1 VH with R27S
VL: B1 VL with K35R
notes: as for B8
B20: AB1 affinity maturation variant 18 (L:Y38R) (antibody, V domains shown)
VH: B1 VH with R27S
VL: B1 VL with Y37R
notes: as for B8
B21: AB1 affinity maturation variant 19 (L:F114R) (antibody, V domains shown)
VH: B1 VH with R27S
VL: B1 VL with F99R
notes: as for B8
B22: AB1 affinity maturation variant 20 (L:Q106Y) (antibody, V domains shown)
VH: B1 VH with R27S
VL: B1 VL with Q95Y
notes: IMGT numbering; IgG1, as m1; also called neutral control mutation; source: HEK293FT, transiently transfected, purified (Protein A)
B23: AB1 alanine variant 2 (H:T35A) (antibody, V domains shown)
VH: B1 VH with R27S, T30A
VL: B1 VL
notes: as for B8
B24: AB1 alanine variant 3 (H:R66A) (antibody, V domains shown)
VH: B1 VH with R27S, R59A
VL: B1 VL
notes: as for B8
B25: AB1 alanine variant 10 (H:S28A) (antibody, V domains shown)
VH: B1 VH with R27A
VL: B1 VL
notes: as for B8
B26: AB1 alanine variant 13 (H:T110A) (antibody, V domains shown)
VH: B1 VH with R27S, T102A
VL: B1 VL
notes: as for B8
B27: AB1 alanine variant 14 (L:Y31A) (antibody, V domains shown)
VH: B1 VH with R27S
VL: B1 VL with Y31A
notes: as for B8
B28: AB1 alanine variant 18 (L:R116A) (antibody, V domains shown)
VH: B1 VH with R27S
VL: B1 VL with R101A
notes: as for B8
B29: AB1 alanine variant 21 (L:Y31A/Y38A) (antibody, V domains shown)
VH: B1 VH with R27S
VL: B1 VL with Y31A, Y37A
notes: IMGT numbering; IgG1, as m1; intermediate construct; source: HEK293FT, transiently transfected, purified (Protein A)
B30: AB1 alanine variant 22 (L:Y31A/D34A) (antibody, V domains shown)
VH: B1 VH with R27S
VL: B1 VL with Y31A, D33A
notes: as for B29
B31: AB1 alanine variant 23 (H:T35A/N107A/L:Y31A) (antibody, V domains shown)
VH: B1 VH with R27S, T30A, N99A
VL: B1 VL with Y31A
notes: as for B29
B32: AB1 alanine variant 4 (H:N113A) (antibody, V domains shown)
VH: B1 VH with R27S, N103A
VL: B1 VL
notes: as for B8
B33: AB1 alanine variant 6 (H:S29A, L:Y31A, L:Y38A) (antibody, V domains shown)
VH: B1 VH with R27S, S28A
VL: B1 VL with Y31A, Y37A
notes: as for B8
B34: AB1 alanine variant 8 (H:T110A, L:Y31A, L:D34A) (antibody, V domains shown)
VH: B1 VH with R27S, T102A
VL: B1 VL with Y31A, D33A
notes: as for B8
B35: AB1 alanine variant 9 (H:T35A, H:N107A, L:R116A) (antibody, V domains shown)
VH: B1 VH with R27S, T30A, N99A
VL: B1 VL with R101A
notes: as for B8
B36: AB1 alanine variant 11 (H:Y55A) (antibody, V domains shown)
VH: B1 VH with R27S, Y50A
VL: B1 VL
notes: as for B8
B37: AB1 alanine variant 12 (H:N107A) (antibody, V domains shown)
VH: B1 VH with R27S, N99A
VL: B1 VL
notes: as for B8
B38: AB1 alanine variant 15 (L:D34A) (antibody, V domains shown)
VH: B1 VH with R27S
VL: B1 VL with D33A
notes: as for B8
B39: AB1 alanine variant 17 (L:Y38A) (antibody, V domains shown)
VH: B1 VH with R27S
VL: B1 VL with Y37A
notes: as for B8

Legend:
murine CCL20 (mouse) = murine CCL20 (mouse) (UniProt O89093)
[1] = molecular target: T2, biotinylated murine CCL20 (Mus musculus, UniProt O89093, biotin); assay: ELISA; capture ELISA: plate-coated anti-mouse Fc antibody (1 ug/mL) captures the antibody variant (5 ug/mL); biotinylated muCCL20 titrated from 0 to 600 nM, 1 h; conditions: both partners purified
T2 construct: CCL20, mouse; recombinant; m2 with biotin; also called biotinylated muCCL20; muCCL20 antigen; source: in-house, standard mammalian cell expression; biotinylated

murine CCL20 [2] = molecular target: T1, murine CCL20; assay: SPR
murine CCL20 [3] = molecular target: T1, murine CCL20; assay: SPR
murine CCL20 [4] = molecular target: T3, murine CCL20 (Mus musculus, UniProt O89093); assay: SPR; Biacore T200; muCCL20 immobilised on a CM4 chip (~30 RU); Fab 0.02-50 nM at 100 uL/min; HBS-EP pH 7.4; 1:1 model; apparent KD = koff/kon; conditions: both partners purified
T3 construct: CCL20, mouse; recombinant; also called muCCL20; mouse CCL20; source: in-house, standard mammalian cell expression; purified

Binder | binding result [1] | further results
B1 | – | fold decrease in antibody IC50 against parental AB1, CCR6 CHO-K1 β-arrestin assay with 4 nM muCCL20; blocks muCCL20 with muCCR6 (murine CCL20 (mouse)): 4 fold
B2 | binds | fold decrease in antibody IC50 against parental AB1, CCR6 CHO-K1 β-arrestin assay with 4 nM muCCL20; blocks muCCL20 with muCCR6 (murine CCL20 (mouse)): 2 fold
B3 | binds | fold decrease in antibody IC50 against parental AB1, CCR6 CHO-K1 β-arrestin assay with 4 nM muCCL20; blocks muCCL20 with muCCR6 (murine CCL20 (mouse)): 4 fold
B4 | – | koff (murine CCL20 [2]): 0.0077 s⁻¹; Kd (murine CCL20 [3]): 9.1 nM; binding result (murine CCL20 [4]): binds
B5 | – | koff (murine CCL20 [2]): 0.0042 s⁻¹; Kd (murine CCL20 [3]): 2.8 nM; binding result (murine CCL20 [4]): binds
B6 | – | koff (murine CCL20 [2]): 0.0029 s⁻¹; Kd (murine CCL20 [3]): 2.3 nM; fold improvement in KD against parental AB1 (murine CCL20 [4]): 4 fold
B7 | – | koff (murine CCL20 [2]): 0.007 s⁻¹; Kd (murine CCL20 [3]): 8.4 nM; binding result (murine CCL20 [4]): binds
B8 | binds | –
B9 | binds | –
B10 | binds | –
B11 | binds | –
B12 | binds | –
B13 | binds | –
B14 | binds | –
B15 | binds | –
B16 | binds | –
B17 | binds | –
B18 | binds | –
B19 | binds | –
B20 | binds | –

Binder | binding result [1] | further results
B21 | binds | –
B22 | binds | –
B23 | binds | –
B24 | binds | –
B25 | binds | –
B26 | binds | –
B27 | binds | –
B28 | binds | –
B29 | no binding (tested: 600 nM) | –
B30 | no binding (tested: 600 nM) | –
B31 | no binding (tested: 600 nM) | –
B32 | no binding (tested: 600 nM) | –
B33 | no binding (tested: 600 nM) | –
B34 | no binding (tested: 600 nM) | –
B35 | no binding (tested: 600 nM) | –
B36 | no binding (tested: 600 nM) | –
B37 | no binding (tested: 600 nM) | –
B38 | no binding (tested: 600 nM) | –
B39 | no binding (tested: 600 nM) | –
